In publication PMC6194859:

Biological target: T1, PhoB~P (phosphorylated PhoB) (Escherichia coli) (UniProt P0AFJ5)
T1 sequence: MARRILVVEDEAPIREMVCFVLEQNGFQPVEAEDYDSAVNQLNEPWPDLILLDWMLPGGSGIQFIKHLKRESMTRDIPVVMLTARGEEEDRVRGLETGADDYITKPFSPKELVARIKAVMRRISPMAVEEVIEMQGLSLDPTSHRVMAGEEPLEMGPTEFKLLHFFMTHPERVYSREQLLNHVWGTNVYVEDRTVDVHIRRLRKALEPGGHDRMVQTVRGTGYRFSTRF
Assay: EMSA
Conditions: phosphoramidate-phosphorylated PhoB, 50 mM Tris pH 7.6, 200 mM NaCl, 0.1 mg/ml BSA, 2 mM MgCl2, 1 mM DTT, 5% glycerol, ~0.1 uM DNA (mM in the source), 15 uM nonfluorescent competitor dsDNA, 30 min, 12% …

Sequence | Kd (two-site per DNA binding model) [mM] | Kd (Hill fit) [mM]
GCCACGGAAATCAATAACCTGAAGATATGTGCGACGAGCTTTTCATAAATCTGTCATAAATCTGACGCATAATGACGTCGCATTAATGATCGCAACCTATTTATTACAACAGGGCTGATCTAGAAATAATTTTGTTTAACTTTAAGAAGGAGATATACAAATGGTGAGC (double strand) [phoB promoter] | 0.00025 | 
CTGCAGGAAGAAGGAAAACGCTGGTTTGACAATCTTGCCGCTAACGGAAAAATCGAAATGGCCTGGCAGGAAACTTTCTGGGCGCATGGCTTTGGCAAAGTCACCGATAAATTTGGCGTACCGTGGATGATTAATGTCGTCAAACAACAACCAACGCAATAACCCGCCGGGAGGCCCGCCCTCCCGCACTGTCATCGAATTCCCGTTAACTCTTCATCTGTTAGTCACTTTTAATTAACCAAATCGTCACAATAATCCGCCACGATGGAGCCACTTTTTTAGGGAGGCTGCATCATGCAAACGATTTGATCTAGAAATAATTTTGTTTAACTTTAAGAAGGAGATATACAAATGGTGAGC (double strand) [phnC promoter] |  | 0.0017
